This passage reports Kd results from paper PMC4586518 (2015).

This test addresses Melanocortin-1 receptor (MC-1R) (Mus musculus, UniProt Q01727). Kind of test: radioligand competition binding with [125I]-α-MSH on B16 cells.

Sequence of Melanocortin-1 receptor (MC-1R) (Q01727 whole entry): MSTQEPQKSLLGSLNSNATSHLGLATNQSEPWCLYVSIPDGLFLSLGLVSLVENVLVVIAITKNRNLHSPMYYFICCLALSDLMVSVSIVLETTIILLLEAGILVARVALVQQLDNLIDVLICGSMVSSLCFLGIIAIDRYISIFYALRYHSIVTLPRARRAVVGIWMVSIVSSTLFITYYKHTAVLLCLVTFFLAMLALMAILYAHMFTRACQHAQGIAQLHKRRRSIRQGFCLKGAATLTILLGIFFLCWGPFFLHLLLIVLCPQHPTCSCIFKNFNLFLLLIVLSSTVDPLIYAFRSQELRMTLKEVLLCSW

SYSMEHFR [ACTH(1-8)] had a dissociation constant (Kd) of 0.088 µM.
